Common to all, as to type: biochemical, human
Substrate in data set [1]: CCCCCCCCCCCCCC(=O)NCCCC[C@@H]1NC(=O)[C@H](CCCNC(=N)N)NC(=O)[C@@H](NC(C)=O)CCCCNC(=O)CCCCCCC(=O)NCCCC[C@@H](C(=O)N[C@H](C(N)=O)[C@@H](C)O)NC1=O
Put plainly: HPLC-based sirtuin deacylation activity assay, SIRT3. The settings on record: other: substrate activity with SIRT3, 50 mM Hepes pH 8.0, 3.5 mM β-NAD+, His6-SIRT3 739 nM, 37 °C, 2 min, HPLC 214 nm, Michaelis-Menten fit. On the procedure:
(§1) The steady-state kinetic parameters (kcat and KM) for the SIRT1/2/3 substrate activities of the purified 5–8 were determined with a HPLC-based sirtuin deacylation activity assay and are recorded in Table 2 and Table 3. As judged by kcat/KM ratios, cyclic peptides 5–8 were all found to be excellent SIRT1 substrates, actually 5, 7, and 8 are all better SIRT1 substrates than the linear hexapeptide-based SIRT1 substrate 3 (depicted in Figure 2) reported in the current literature (kcat/KM = 800 M^−1 s^−1). Cyclic peptides 5–8 were also all found to be better SIRT3 substrates than the linear hexapeptide-based SIRT3 substrate 3 reported in the current literature (kcat/KM = 990 M^−1·s^−1).
(§2) The following materials were obtained from commercial sources for the in vitro sirtuin deacylation activity assay and the pronase digestion assay, and were used as received. Sigma-Aldrich China: the active human recombinant His6-SIRT1, Trizma, Hepes, β-NAD^+, a 1.0 M solution of MgCl2 (molecular-biology grade), the pronase from Streptomyces griseus; Cayman Chemical (Ann Arbor, MI, USA): the active human recombinant GST-SIRT1, the active human recombinant His6-SIRT2, the active human recombinant His6-SIRT3; TCI Shanghai: DL-dithiothreitol (DTT); Alfa Aesar China: NaCl, KCl.
(§3) A sirtuin deacylation assay solution contained the following: 50 mM Hepes (pH 8.0), 137 mM NaCl, 2.7 mM KCl, 1 mM MgCl2, 1 mM DTT, β-NAD^+ (~5.6 × KM: 0.5 mM for the SIRT1 and SIRT2 assays, 3.5 mM for the SIRT3 assay), one test compound (5, 6, 7, or 8) with varied concentrations including 0, and a sirtuin (His6-SIRT1 or GST-SIRT1, 243 nM; His6-SIRT2, 297 nM; or His6-SIRT3, 739 nM). An enzymatic reaction was initiated by the addition of a sirtuin at 37 °C and was incubated at 37 °C for 5 min (for the SIRT1 assay) or 2 min (for the SIRT2 and SIRT3 assays) until quenched with the following stop solution: 100 mM HCl and 0.16 M acetic acid. The quenched assay solutions were directly injected into a C18 column (0.46 × 25 cm, 5 μm), and the column was eluted with a gradient of ddH2O containing 0.05% (v/v) TFA and acetonitrile containing 0.05% (v/v) TFA at 1 mL/min and was monitored at 214 nm. Turnover of the limiting substrate was kept at <10%. Stock solutions of the test compounds were all prepared in ddH2O. The integrated product and substrate HPLC peak areas were then used to determine the initial velocities for the sirtuin-catalyzed deacylation reaction at different concentrations of a test compound (5, 6, 7, or 8). The initial velocity-concentration data were analyzed with KaleidaGraph® (Synergy Software, Reading, PA, USA) and the data were fitted to the Michaelis-Menten equation to obtain the kinetic parameters kcat and KM, as recorded in Table 2 and Table 3.

Substrate in data set [2]: CSCC[C@H](NC(=O)[C@@H]1CCCCNC(=O)CCC(=O)NCCCC[C@H](NC(C)=O)C(=O)N[C@@H](CCCCN)C(=O)N[C@@H](CCCCNC(C)=O)C(=O)N1)C(N)=O
The description is as above. The following applies: other: substrate activity with SIRT3, 50 mM Hepes pH 8.0, 3.5 mM β-NAD+, His6-SIRT3 739 nM, 37 °C, 2 min, HPLC 214 nm, Michaelis-Menten fit. On the procedure:
as §1, §2, §3

Substrate in data set [3]: CSCC[C@H](NC(=O)[C@@H]1CCCCNC(=O)CNC(=O)CCCCCCC(=O)NCC(=O)NCCCC[C@H](NC(C)=O)C(=O)N[C@@H](CCCCN)C(=O)N[C@@H](CCCCNC(C)=O)C(=O)N1)C(N)=O
The data set is described as above. The settings on record: other: substrate activity with SIRT3, 50 mM Hepes pH 8.0, 3.5 mM β-NAD+, His6-SIRT3 739 nM, 37 °C, 2 min, HPLC 214 nm, Michaelis-Menten fit. The method, then: as §1, §2, §3

Substrate in data set [4]: CCCCCCCCCCCCCC(=O)NCCCC[C@@H]1NC(=O)[C@H](CCCNC(=N)N)NC(=O)[C@@H](NC(C)=O)CCCCNC(=O)CCCCCCC(=O)NCCCC[C@@H](C(=O)N[C@H](C(N)=O)[C@@H](C)O)NC1=O
Put plainly: HPLC-based sirtuin deacylation activity assay, SIRT2. The following applies: other: substrate activity with SIRT2, 50 mM Hepes pH 8.0, 0.5 mM β-NAD+, His6-SIRT2 297 nM, 37 °C, 2 min, HPLC 214 nm, Michaelis-Menten fit. The method, then:
as §1, §2, §3

Substrate in data set [5]: CSCC[C@H](NC(=O)[C@@H]1CCCCNC(=O)CCC(=O)NCCCC[C@H](NC(C)=O)C(=O)N[C@@H](CCCCN)C(=O)N[C@@H](CCCCNC(C)=O)C(=O)N1)C(N)=O
The description is as above. The following applies: other: substrate activity with SIRT2, 50 mM Hepes pH 8.0, 0.5 mM β-NAD+, His6-SIRT2 297 nM, 37 °C, 2 min, HPLC 214 nm, Michaelis-Menten fit. On the procedure:
as §1, §2, §3

Substrate in data set [6]: CSCC[C@H](NC(=O)[C@@H]1CCCCNC(=O)CNC(=O)CCCCCCC(=O)NCC(=O)NCCCC[C@H](NC(C)=O)C(=O)N[C@@H](CCCCN)C(=O)N[C@@H](CCCCNC(C)=O)C(=O)N1)C(N)=O
The description is as above. The following applies: other: substrate activity with SIRT2, 50 mM Hepes pH 8.0, 0.5 mM β-NAD+, His6-SIRT2 297 nM, 37 °C, 2 min, HPLC 214 nm, Michaelis-Menten fit. The method, then: as §1, §2, §3

B1: human recombinant His6-SIRT3 (Homo sapiens) (protein)
chain: MAFWGWRAAAALRLWGRVVERVEAGGGVGPFQACGCRLVLGGRDDVSAGLRGSHGARGEPLDPARPLQRPPRPEVPRAFRRQPRAAAPSFFFSSIKGGRRSISFSVGASSVVGSGGSSDKGKLSLQDVAELIRARACQRVVVMVGAGISTPSGIPDFRSPGSGLYSNLQQYDLPYPEAIFELPFFFHNPKPFFTLAKELYPGNYKPNVTHYFLRLLHDKGLLLRLYTQNIDGLERVSGIPASKLVEAHGTFASATCTVCQRPFPGEDIRADVMADRVPRCPVCTGVVKPDIVFFGEPLPQRFLLHVVDFPMADLLLILGTSLEVEPFASLTEAVRSSVPRLLINRDLVGPLAWHPRSRDVAQLGDVVHGVESLVELLGWTEEMRDLVQRETGKLDGPDK
notes: His6; purchased Cayman Chemical
The Km is the substrate concentration at which the rate is half of its maximum. As for B1, in data set [1], the Km was found to be 4.2 ± 0.38 µM; the kcat was 60.0 ± 2.8 10^−3, s^−1; the kcat/Km entry is recorded as “(14.3 ± 0.66) × 10^3 M^−1·s^−1”. Also, in data set [2], the Km stood at 34.9 ± 4.04 µM; the kcat is 155.3 ± 16.6 10^−3, s^−1; the kcat/Km result is listed as “(4.51 ± 1.0) × 10^3 M^−1·s^−1”. For the same protein, in data set [3], the Km is 4.5 ± 0.9 µM; the kcat is on record as 15.8 ± 1.4 10^−3, s^−1; the kcat/Km entry is on record as “(3.6 ± 0.4) × 10^3 M^−1·s^−1”.

B2: human recombinant His6-SIRT2 (Homo sapiens) (protein)
chain: MAEPDPSHPLETQAGKVQEAQDSDSDSEGGAAGGEADMDFLRNLFSQTLSLGSQKERLLDELTLEGVARYMQSERCRRVICLVGAGISTSAGIPDFRSPSTGLYDNLEKYHLPYPEAIFEISYFKKHPEPFFALAKELYPGQFKPTICHYFMRLLKDKGLLLRCYTQNIDTLERIAGLEQEDLVEAHGTFYTSHCVSASCRHEYPLSWMKEKIFSEVTPKCEDCQSLVKPDIVFFGESLPARFFSCMQSDFLKVDLLLVMGTSLQVQPFASLISKAPLSTPRLLINKEKAGQSDPFLGMIMGLGGGMDFDSKKAYRDVAWLGECDQGCLALAELLGWKKELEDLVRREHASIDAQSGAGVPNPSTSASPKKSPPPAKDEARTTEREKPQ
notes: as for B1
Turning to B2, in data set [4], the Km was found to be 37.6 ± 14.4 µM; the kcat is recorded as 90.9 ± 2.62 10^−3, s^−1; the kcat/Km entry is “(2.6 ± 0.93) × 10^3 M^−1·s^−1”. Besides, in data set [5], the Km was determined as 49.7 ± 7.78 µM; the kcat is 138.9 ± 26.7 10^−3, s^−1; the kcat/Km result is recorded as “(2.79 ± 0.1) × 10^3 M^−1·s^−1”. Besides, in data set [6], the Km is 11.6 ± 2.2 µM; the kcat is 36.0 ± 4.9 10^−3, s^−1; the kcat/Km result is reported as “(3.2 ± 1.0) × 10^3 M^−1·s^−1”.

(Values after paper PMC6384901, “Cyclic Peptide-Based Sirtuin Substrates” (Molecules, 2019).)
